The target in the assay is H-2Kb, peptide-free ('empty') MHC class I molecule on RMA-S cells (mouse | mouse (endogenous in RMA-S)). The assay can be described thus: MHC stabilization assay.

For the substance “SIINFEKL, CTL epitope derived from ovalbumin (peptide)”, the SI (stabilization index) fell in the range of 450 to 500.

For the origin of these results see article PMC2192062.
